# Experimental data reported in paper PMC11291478, “Molecular and structural basis of an ATPase-nuclease dual-enzyme anti-phage defense complex” (Cell Research, 2024).
# Values joined by “and” are separate entries in the source; they are usually repeats but may differ in a detail not shown here. Equal entries are not always repeated.
# Legend:
# [1] = biological target: T1, DUF4297–HerA complex (Escherichia coli, UniProt A0ABF7PQ56); assay: phosphate release, modified Baginski method; type: biochemical; conditions: 5 nM complex, 20 mM Tris-HCl pH 8.0, 50 mM NaCl, 5 mM MgCl2, 5 mM DTT, 37 °C
# T1 construct: gene CG692_10950; co-expressed in E. coli BL21(DE3) from pET28a, His tag at N-terminus of DUF4297; about 1 MDa complex of 12 DUF4297 and 6 HerA; with DUF4297 domain-containing protein (dsDNA endonuclease Cap4-like domain-containing anti-phage protein)
# T1 sequence (A0ABF7PQ56 1-571): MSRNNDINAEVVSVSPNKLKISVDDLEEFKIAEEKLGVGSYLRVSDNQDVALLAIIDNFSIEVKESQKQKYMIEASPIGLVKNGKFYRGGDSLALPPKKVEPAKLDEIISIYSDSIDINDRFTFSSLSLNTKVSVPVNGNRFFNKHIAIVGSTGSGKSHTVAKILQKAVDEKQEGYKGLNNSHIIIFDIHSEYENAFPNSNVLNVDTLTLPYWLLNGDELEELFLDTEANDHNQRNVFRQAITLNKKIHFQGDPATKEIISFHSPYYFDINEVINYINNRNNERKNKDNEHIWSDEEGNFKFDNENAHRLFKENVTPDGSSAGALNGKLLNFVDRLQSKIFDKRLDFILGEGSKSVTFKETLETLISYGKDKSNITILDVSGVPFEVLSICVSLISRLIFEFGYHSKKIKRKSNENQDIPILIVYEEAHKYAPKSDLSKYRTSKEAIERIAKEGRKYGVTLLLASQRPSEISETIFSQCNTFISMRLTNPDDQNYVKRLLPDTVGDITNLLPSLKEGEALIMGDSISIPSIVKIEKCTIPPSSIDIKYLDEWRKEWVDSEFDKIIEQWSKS
# T1 sequence (A0ABF7PQ57 1-394 partner): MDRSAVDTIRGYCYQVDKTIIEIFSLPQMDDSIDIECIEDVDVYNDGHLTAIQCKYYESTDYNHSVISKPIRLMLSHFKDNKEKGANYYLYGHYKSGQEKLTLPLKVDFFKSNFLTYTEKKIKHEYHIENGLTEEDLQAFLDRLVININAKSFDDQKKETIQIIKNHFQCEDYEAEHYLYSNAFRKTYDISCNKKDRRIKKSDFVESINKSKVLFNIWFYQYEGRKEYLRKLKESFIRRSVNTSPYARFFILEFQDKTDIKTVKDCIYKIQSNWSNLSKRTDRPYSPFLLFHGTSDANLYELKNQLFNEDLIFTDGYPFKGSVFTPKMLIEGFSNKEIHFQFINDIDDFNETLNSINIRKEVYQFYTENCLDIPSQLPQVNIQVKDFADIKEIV
# [2] = biological target: DUF4297; assay: AUC; sedimentation velocity, 55,000 rpm, 4 °C, ~1 mg/mL, 20 mM Tris-HCl pH 8.0, 500 mM NaCl
# [3] = biological target: HerA; assay: cryo-EM structure; co-expressed and purified DUF4297–HerA complex without nucleotide or DNA, ~1.0 mg/mL, C2 symmetry imposed, 2.87 Å
# [4] = biological target: DUF4297; assay: as above
# [5] = biological target: HerA; assay: cryo-EM structure; HerA alone, ~1.0 mg/mL, 3.14 Å
# [6] = biological target: HerA; assay: cryo-EM structure; purified DUF4297–HerA complex with 1 mM AMPPNP, 5 mM MgCl2 and 59-bp dsDNA (1:1.2); state 1 at 2.73 Å and state 2 at 2.92 Å
# [7] = biological target: DUF4297
# [8] = biological target: T1, DUF4297–HerA complex; assay: cryo-EM structure; type: binding; conditions: with 59-bp dsDNA, 1 mM AMPPNP, 5 mM MgCl2; site at interface of RecA-like domains of adjacent HerA subunits; states 1 and 2
molecule,measurement,setting,value
Nc1ncnc2c1ncn2[C@@H]1O[C@H](COP(=O)(O)OP(=O)(O)OP(=O)(O)O)[C@@H](O)[C@H]1O [ATP],"phosphate release, modified Baginski method",[1],the DUF4297–HerA complex exhibits a high turnover rate under the same testing condition
DUF4297 (enzyme),stoichiometry N,[2],2
HerA (enzyme),stoichiometry N,[3],6
same,stoichiometry N (DUF4297 per HerA),[4],2
same,stoichiometry N,[5],6 and 5
same,stoichiometry N,[6],6
same,fold decrease in dsDNA nuclease activity of DUF4297 alone against the DUF4297–HerA complex,[7],300 fold
Nc1ncnc2c1ncn2[C@@H]1O[C@H](COP(=O)(O)OP(=O)(O)NP(=O)(O)O)[C@@H](O)[C@H]1O [AMPPNP],cryo-EM structure,[8],three DNA-engaged subunits A–C bind ATP (AMPPNP in the structure)
